# Assay results taken from paper doi:10.1101/2025.07.08.663703, “Recruitment of Mre11 to recombination sites during meiosis” (bioRxiv, 2025).
# Target: T1, yeast Smt3 (Smt3 6xHis) (yeast, UniProt Q12306 1-101 = SUMO)
# T1 construct: Smt3 (SUMO), yeast; Uniformly 13C,15N labelled for the NMR experiments; also called SUMO; U-[13C,15N]; Smt3; source: E. coli BL21 (DE3)pLysS, purified (Ni-NTA)
# Assay: ITC; 2 mM peptide in the syringe, 150 μM or 300 μM Smt3 in the cell; 20 mM NaPi 100 mM NaCl pH 7.5, 10% DMSO, 25°C; single binding site model
# Conditions: both partners purified
# T1 sequence (Q12306 whole entry): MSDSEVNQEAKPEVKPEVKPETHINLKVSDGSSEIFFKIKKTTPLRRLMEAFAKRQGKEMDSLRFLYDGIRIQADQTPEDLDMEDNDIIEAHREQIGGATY
binder,measurement,value
"ENDIIMVSTDE [synthetic Mre11-SIM3 peptide, wild type]",Kd,20 ± 10 µM
